Measurements published in PMC11194070, “Despite the odds: formation of the SARS-CoV-2 methylation complex” (Nucleic Acids Research, 2024).

Target: T1, nsp10/16 complex (heterodimer of SARS-CoV-2 nsp10 and nsp16) (SARS-CoV-2, UniProt P0DTD1)
T1 construct: also called nsp10/nsp16; nsp10/16 heterodimer
Experiment: MST
Conditions: both partners purified

B1: nsp14ExoN, nsp14 without the methyltransferase domain but retaining the exonuclease activity (domain or fragment)
chain: AENVTGLFKDCSKVITGLHPTQAPTHLSVDTKFKTEGLCVDIPGIPKDMTYRRLISMMGFKMNYQVNGYPNMFITREEAIRHVRAWIGFDVEGCHATREAVGTNLPLQLGFSTGVNLVAVPTGYVDTPNNTDFSRVSAKPPPGDQFKHLIPLMYKGLPWNVVRIKIVQMLSDTLKNLSDRVVFVLWAHGFELTSMKYFVKIGPERTCCLCDRRATCFSTASDTYACWHHSIGFDYVYNPFMIDVQQWGFTGNLQSNHDLYCQVHGNAHVASCDAIMTRCLAVHECFVKRVDWTIE
Binder B1 has a Kd of 110 ± 130 nM.
